Measurements: PMC12823420

How the values were obtained:
UAP56-UCM-1 fusion = UAP56-UCM-1 fusion (Homo sapiens, UniProt Q13838 1-428+P82979:82-115, internal_change); test: GCI; 1 mM ATP; RNA immobilized; GCI: 25 mM HEPES pH 7.9, 50 mM KCl, 1 mM MgCl2, 1 mM TCEP, 1 mM ATP, 25 C; AdML pull-down: 20 mM HEPES pH 7.9, 100 mM KCl, 2 mM MgCl2, 5% glycerol, 0.1% Igepal, 1 mM AMP-PNP, RT; unclamping: same with 40 mM KCl, 500 mM KCl washes; conditions: protein: recombinant; tags: 10xHis; otherwise unlabelled; single strand
UAP56 = UAP56 (Homo sapiens, UniProt Q13838 1-428); test: as above; conditions: protein: recombinant; otherwise unlabelled; single strand

With UUUUUUUUUUUUUUU (ssRNA) [15U RNA] the Kd (UAP56-UCM-1 fusion) was 270 ± 60 nM and the Kd (UAP56) was 780 ± 90 nM.
